The text below walks through data of patent publication US20220332804A1 (CSL INNOVATION, published 2022).

Experiment in all cases: SPR, antibody captured, C2 as analyte;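 also: biacore at 37 °C, anti-C2 mAbs held by immobilised goat anti-human IgG, C2 alanine or serine mutants injected, double-referenced sensorgrams fitted to a 1:1 kinetic or steady-state model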
On the technique in general: In SPR one partner is held on a chip, and binding of the other changes the refractive index at the surface.

Assay [1] deals with T1, human C2 K415A (human, UniProt P06681 21-752).
T1 sequence: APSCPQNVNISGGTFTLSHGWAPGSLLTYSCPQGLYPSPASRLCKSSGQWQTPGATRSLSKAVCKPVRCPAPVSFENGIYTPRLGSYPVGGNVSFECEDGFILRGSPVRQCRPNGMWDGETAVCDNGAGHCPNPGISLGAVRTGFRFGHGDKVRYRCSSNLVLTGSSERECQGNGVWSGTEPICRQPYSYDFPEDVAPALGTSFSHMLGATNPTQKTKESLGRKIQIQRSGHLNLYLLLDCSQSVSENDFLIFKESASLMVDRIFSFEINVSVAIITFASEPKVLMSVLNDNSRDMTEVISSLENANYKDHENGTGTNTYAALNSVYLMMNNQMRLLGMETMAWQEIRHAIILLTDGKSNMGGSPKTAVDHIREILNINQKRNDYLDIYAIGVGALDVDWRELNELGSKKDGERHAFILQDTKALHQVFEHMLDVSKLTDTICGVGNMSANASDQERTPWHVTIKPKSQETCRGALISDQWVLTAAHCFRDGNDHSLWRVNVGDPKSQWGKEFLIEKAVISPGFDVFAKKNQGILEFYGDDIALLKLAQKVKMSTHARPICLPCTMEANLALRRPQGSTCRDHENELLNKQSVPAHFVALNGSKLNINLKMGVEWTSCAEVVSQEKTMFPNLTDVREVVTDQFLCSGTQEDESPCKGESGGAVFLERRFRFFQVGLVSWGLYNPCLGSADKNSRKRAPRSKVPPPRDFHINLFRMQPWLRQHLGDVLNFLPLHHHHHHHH

Assay [2] has as its target T2, human C2 A444S (human, UniProt P06681 21-752).
T2 sequence: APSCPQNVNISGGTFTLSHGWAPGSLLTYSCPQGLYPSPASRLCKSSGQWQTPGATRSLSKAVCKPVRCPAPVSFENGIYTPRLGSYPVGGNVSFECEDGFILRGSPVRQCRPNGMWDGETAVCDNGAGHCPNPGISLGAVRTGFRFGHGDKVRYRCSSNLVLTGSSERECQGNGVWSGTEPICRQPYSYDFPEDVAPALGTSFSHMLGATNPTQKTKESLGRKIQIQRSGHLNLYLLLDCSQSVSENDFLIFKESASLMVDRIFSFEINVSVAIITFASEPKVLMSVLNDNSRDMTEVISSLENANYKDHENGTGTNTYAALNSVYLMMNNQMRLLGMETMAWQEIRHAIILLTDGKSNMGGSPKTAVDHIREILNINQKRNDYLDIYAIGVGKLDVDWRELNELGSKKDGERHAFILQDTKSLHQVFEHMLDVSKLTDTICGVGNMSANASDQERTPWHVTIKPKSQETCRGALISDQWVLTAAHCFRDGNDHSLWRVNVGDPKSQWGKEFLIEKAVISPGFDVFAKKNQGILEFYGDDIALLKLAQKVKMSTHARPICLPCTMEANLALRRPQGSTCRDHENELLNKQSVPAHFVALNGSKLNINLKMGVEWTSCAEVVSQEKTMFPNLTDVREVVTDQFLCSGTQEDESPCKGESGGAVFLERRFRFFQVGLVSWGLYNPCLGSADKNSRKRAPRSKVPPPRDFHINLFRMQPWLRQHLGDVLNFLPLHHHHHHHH

For assay [3], the target named is T3, human C2 S278A (human, UniProt P06681 21-752).
T3 sequence: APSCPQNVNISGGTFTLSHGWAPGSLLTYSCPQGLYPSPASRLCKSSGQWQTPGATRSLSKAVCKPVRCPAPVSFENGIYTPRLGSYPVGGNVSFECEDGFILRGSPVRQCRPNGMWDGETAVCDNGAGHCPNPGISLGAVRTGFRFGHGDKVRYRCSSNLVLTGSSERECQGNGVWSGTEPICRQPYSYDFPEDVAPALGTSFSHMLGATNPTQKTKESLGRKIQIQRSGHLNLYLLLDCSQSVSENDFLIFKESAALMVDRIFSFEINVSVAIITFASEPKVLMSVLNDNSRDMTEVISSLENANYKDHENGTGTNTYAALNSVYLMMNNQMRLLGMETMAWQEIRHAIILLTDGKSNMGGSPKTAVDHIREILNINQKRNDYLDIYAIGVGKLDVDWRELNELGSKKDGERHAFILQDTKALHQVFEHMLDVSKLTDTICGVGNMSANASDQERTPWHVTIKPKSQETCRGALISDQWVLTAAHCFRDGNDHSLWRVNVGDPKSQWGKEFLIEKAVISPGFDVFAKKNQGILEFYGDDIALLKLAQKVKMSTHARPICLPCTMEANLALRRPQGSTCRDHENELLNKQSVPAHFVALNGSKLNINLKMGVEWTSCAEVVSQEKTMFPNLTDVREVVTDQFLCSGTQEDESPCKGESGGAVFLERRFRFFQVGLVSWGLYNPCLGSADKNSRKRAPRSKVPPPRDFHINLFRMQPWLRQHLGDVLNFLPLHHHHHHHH

The target of assay [4] is T4, human C2 V455A (human, UniProt P06681 21-752).
T4 sequence: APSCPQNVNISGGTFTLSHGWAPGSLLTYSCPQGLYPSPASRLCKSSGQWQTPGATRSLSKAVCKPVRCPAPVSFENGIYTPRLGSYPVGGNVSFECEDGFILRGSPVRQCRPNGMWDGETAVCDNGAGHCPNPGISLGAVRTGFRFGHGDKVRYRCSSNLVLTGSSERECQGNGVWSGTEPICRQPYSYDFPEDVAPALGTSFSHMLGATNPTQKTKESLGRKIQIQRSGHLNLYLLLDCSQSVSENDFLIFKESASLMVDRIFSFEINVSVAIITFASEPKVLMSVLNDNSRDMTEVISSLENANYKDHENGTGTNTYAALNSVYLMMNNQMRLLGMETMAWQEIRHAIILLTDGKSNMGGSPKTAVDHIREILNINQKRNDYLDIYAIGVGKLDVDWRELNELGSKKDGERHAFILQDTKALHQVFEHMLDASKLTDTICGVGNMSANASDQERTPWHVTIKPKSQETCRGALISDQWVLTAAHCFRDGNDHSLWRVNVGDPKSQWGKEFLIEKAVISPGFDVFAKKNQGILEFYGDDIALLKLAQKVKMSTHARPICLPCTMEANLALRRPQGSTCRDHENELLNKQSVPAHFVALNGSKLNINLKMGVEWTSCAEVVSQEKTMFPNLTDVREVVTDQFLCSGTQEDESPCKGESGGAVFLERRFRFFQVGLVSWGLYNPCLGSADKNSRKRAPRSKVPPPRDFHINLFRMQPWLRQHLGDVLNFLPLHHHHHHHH

B1: RF16-242 (antibody, human IgG4 S228P, lambda, V domains shown)
VH: EVQLLQSGAEVKKPGESLKISCKGSGYSFTSYWIGWVRQMPGKGLEWMGIIYPGDSDTRYSPSFQGQVTISADKSISTAYLQWSSLKASDTAMYYCARRGHYGDYFDYWGQGTLVTVSS
VL: SYELTQPPSVSVSPGQTARITCSGDALPKKYAYWYHQKSGQAPVLVIYEDRRRPSEIPERFSGSSSGTMATLTITGAQVEDEGVYFCYSRDRAGNQRVFGGGTQLTVLG
notes: pH-dependent anti-C2 antibody from a phage display library
By Kd is commonly meant a measure of binding affinity in units of concentration. The low end stands for tighter binding, the high end for weaker binding. With B1, the Kd was found to be 4.1 nM in assay [1], 22.4 nM in assay [2], 6.5 nM in assay [3] and 5.9 nM in assay [4].
